Test results as given in PMC4420250.

Target: autoinducing peptide 1 (AIP1), active (cyclized), N-terminally biotinylated (Staphylococcus aureus)

Row | Substance | IC50 of inhibition of agr::P3-yfp promoter activation in S. aureus AH1677 (agr-I) cultured with 50 nM exogenous AIP1 and increasing concentrations of lipoprotein [nM]
1 | apoB48-containing lipoprotein particles (apoB48-LP) from serum of ApoE-/- mice (natural protein) | 3.5
2 | human LDL (apoB100) (natural protein) | 2.3
